Source: the supplement of paper PMC10567573

B1: CCND1 (parent)
chain: PEAEENKQIIRKHAQTFVALCATD
B2: WDFY2 (parent)
chain: FWNFKQMWDSKKIGLRQHHCRKCG

Variants of: B1
Test: protein stability index of a GFP-peptide fusion (GPS, HEK-293T) (PSI 1-6); higher = more stable
Settings: c terminus: a fixed tail appended
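Also: lentivirally expressed fusions sorted by FACS into six bins by GFP to DsRed ratio, PSI derived from sequencing read proportions per bin multiplied by bin number.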

Protein stability index of substitutions, site by site:
D24: P 3.63, Y 2.89, Q 3.8, N 3.88, M 2.93, S 3.9, R 2.7, T 3.35, W 2.39, L 2.79, V 2.54

Variants of: B2
Test: as above
Settings: c terminus: a fixed tail appended

Protein stability index, by site and new letter:
N3: G 2.28, V 3.37, T 1.8, H 1.77
D9: R 1.73, I 2.56, S 1.28, Y 2.95, N 1.81, P 2.43
K11: D 2.1, A 2.93, Y 2.71, W 1.51, S 1.25, H 2.12
K12: V 2.42, N 1.85, E 2.05, G 1.58, A 1.68, T 2.08, M 1.73, W 2.3, D 1.88, C 2.79
I13: P 1.86, S 2.54, K 1.99, W 1.67, R 2.01
Q6: W 1.28, H 2.27, F 1.53, R 1.79, C 2.34, S 1.85, P 2.04, K 2.44, M 1.93
Q17: P 2.52, H 2.18, L 1.99, Y 2.12, I 2.84, K 1.38
C20: K 2.15, Y 1.84, E 2.47, H 3.07, N 2.31, D 1.89, R 2.37, W 3.08, Q 2.15, P 1.94
F4: W 2.26, Q 2.41, N 2.29, R 2.33
G14: D 2.41, W 1.91, F 1.93, L 2, R 1.9
L15: D 2.17, E 2.48, V 2.34, G 2.14, H 1.71, W 1.42
R16: T 1.67, G 1.54, M 1.94, F 3.39, V 2.1, P 3.42, S 2.15
C23: S 1.78, M 1.94, R 1.79, F 2.17, A 1.78
H18: L 1.76, R 2.5, D 1.79, Y 2.5, S 1.84, N 3.5, A 1.73, C 2.94, K 2.06
K5: W 1.38, V 2.33, H 1.66
M7: A 2.19, D 2.41, W 1.74, C 2.09, G 1.68
W2: M 2.39, C 2.19, D 2.78, T 2.12, Y 2.25, L 1.93, F 1.61, A 1.86, H 2.32
G24: A 1.58, M 2.38, L 1.43, V 3.27, K 1.98, C 2.4, Y 2.73, P 2.03, E 2.13
S10: I 2.94, K 2.04, C 1.94, Y 1.72, L 1.67, A 1.32
W8: Y 2.04, G 2.48, M 3.04, A 2.12, K 2.69, N 3.72, S 2.14
K22: T 2.87, S 2.72
R21: V 1.21, I 1.29, Q 2.11, A 2.34, D 2.04
F1: E 3.02, G 2.32, L 1.44, C 2.65, I 2.08, P 2.99, N 2.32, K 2.11, H 2.66, A 2.86
H19: T 1.72, I 2.22, A 1.86, S 2.02, C 1.73, D 2.11, K 2.39, E 1.62
